B1: OsHPPD-02: native Oryza sativa HPPD, SEQ ID NO: 69 (protein, listed as Oryza sativa)
chain: MPPTPTPTATTGAVSAAAAAGENAGFRLVGHRRFVRANPRSDRFQALAFHHVELWCADAASAAGRFAFALGAPLAARSDLSTGNSAHASLLLRSASVAFLFTAPYGGDHGVGADAATTASIPSFSPGAARRFAADHGLAVHAVALRVADAADAFRASVAAGARPAFQPADLGGGFGLAEVELYGDVVLRFVSHPDGADAPFLPGFEGVSNPGAVDYGLRRFDHVVGNVPELAPVAAYISGFTGFHEFAEFTAEDVGTAESGLNSVVLANNAETVLLPLNEPVHGTKRRSQIQTYLDHHGGPGVQHIALASDDVLGTLREMRARSAMGGFEFLAPPPPNYYDGVRRRAGDVLSEEQINECQELGVLVDRDDQGVLLQIFTKPVGDRPTFFLEMIQRIGCMEKDESGQEYQKGGCGGFGKGNFSELFKSIEEYEKSLEAKQAPTVQGS
modifications: OsHPPD Amino Acid Sequence
B2: OsHPPDm-F372A-02: Oryza sativa HPPD mutant F372A, SEQ ID NO: 72 (protein)
chain: B1 chain with F378A
modifications: OsHPPDm-F372A Amino Acid Sequence
B3: SbHPPD-02: native Sorghum bicolor HPPD, SEQ ID NO: 63 (protein)
chain: MPPTPTTAAATGAAVAAASAEQAAFRLVGHRNFVRVNPRSDRFHTLAFHHVELWCADAASAAGRFSFGLGAPLAARSDLSTGNTAHASLLLRSGALAFLFTAPYAHGADAATASLPSFSAAEARRFAADHGLAVRAVALRVADAEDAFRASVAAGARPAFEPVELGLGFRLAEVELYGDVVLRYVSYPDDADASFLPGFVGVTSPGAADYGLRRFDHIVGNVPELAPAAAYFAGFTGFHEFAEFTAEDVGTTESGLNSMVLANNAENVLLPLNEPVHGTKRRSQIQTYLDHHGGPGVQHMALASDDVLRTLREMQARSAMGGFEFMAPPAPEYYDGVRRRAGDVLTEAQIKECQELGVLVDRDDQGVLLQIFTKPVGDRPTLFLEIIQRIGCMEKDEKGQEYQKGGCGGFGKGNFSQLFKSIEDYEKSLEAKQAAAAQGS
modifications: Sorghum bicolor; SbHPPD Amino Acid Sequence
B4: SbHPPDm-F372A-02: Sorghum bicolor HPPD mutant F372A, SEQ ID NO: 66 (protein)
chain: B3 chain with F372A
modifications: SbHPPDm-F372A Amino Acid Sequence
B5: AtHPPD: native Arabidopsis thaliana HPPD, SEQ ID NO: 23 (protein, listed as Arabidopsis thaliana)
chain: MGHQNAAVSENQNHDDGAASSPGFKLVGFSKFVRKNPKSDKFKVKRFHHIEFWCGDATNVARRFSWGLGMRFSAKSDLSTGNMVHASYLLTSGDLRFLFTAPYSPSLSAGEIKPTTTASIPSFDHGSCRSFFSSHGLGVRAVAIEVEDAESAFSISVANGAIPSSPPIVLNEAVTIAEVKLYGDVVLRYVSYKAEDTEKSEFLPGFERVEDASSFPLDYGIRRLDHAVGNVPELGPALTYVAGFTGFHQFAEFTADDVGTAESGLNSAVLASNDEMVLLPINEPVHGTKRKSQIQTYLEHNEGAGLQHLALMSEDIFRTLREMRKRSSIGGFDFMPSPPPTYYQNLKKRVGDVLSDDQIKECEELGILVDRDDQGTLLQIFTKPLGDRPTIFIEIIQRVGCMMKDEEGKAYQSGGCGGFGKGNFSELFKSIEEYEKTLEAKQLVG
modifications: Arabidopsis thaliana HPPD Amido Acid Sequence
B6: AtHPPDm-F372A: Arabidopsis thaliana HPPD mutant F372A, SEQ ID NO: 25 (protein)
chain: B5 chain with F381A
modifications: AtHPPDm-F372A Amino Acid Sequence

Numbering of substitutions follows the chain as printed. In names and notes the source's numbering stands.

The subject of one assay is Arabidopsis thaliana T1 plants. The assay can be described thus: Topramezone tolerance of transgenic Arabidopsis thaliana T1 plants (pesticide damage grade by bleached leaf area, score, resistance evaluation). The class given is in vivo. To be noted: HPPDs from different species; number of plants (of 16) in this grade; topramezone 25 g ai/ha (1x), 7 DAT. In outline:
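Eighteen days after sowing, wild-type and HPPD-transgenic T1 Arabidopsis receive a topramezone spray at 1×, 2× or 4× field rate (25–100 g ai/ha) or water. Seven days later each plant is graded by its proportion of bleached leaf area.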
For B1, the “Classification and statistics of pesticide damage grade Grade 0” value came out at 0; the “Classification and statistics of pesticide damage grade Grade 1” value turned out to be 0; the “Classification and statistics of pesticide damage grade Grade 2” value worked out at 0; the “Classification and statistics of pesticide damage grade Grade 3” value is recorded as 16.
Turning to B2, the “Classification and statistics of pesticide damage grade Grade 0” value was found to be 8; the “Classification and statistics of pesticide damage grade Grade 1” value was 8; the “Classification and statistics of pesticide damage grade Grade 2” value was determined as 0; the “Classification and statistics of pesticide damage grade Grade 3” value is listed as 0.
On to B3, for which the “Classification and statistics of pesticide damage grade Grade 0” value is on record as 0; the “Classification and statistics of pesticide damage grade Grade 1” value was determined as 0; the “Classification and statistics of pesticide damage grade Grade 2” value came out at 0; the “Classification and statistics of pesticide damage grade Grade 3” value was found to be 16.
Regarding B4, the “Classification and statistics of pesticide damage grade Grade 0” value came to 16; the “Classification and statistics of pesticide damage grade Grade 1” value is reported as 0; the “Classification and statistics of pesticide damage grade Grade 2” value amounted to 0; the “Classification and statistics of pesticide damage grade Grade 3” value was determined as 0.
Take B5: the “Classification and statistics of pesticide damage grade Grade 0” value came to 0; the “Classification and statistics of pesticide damage grade Grade 1” value is 0; the “Classification and statistics of pesticide damage grade Grade 2” value was 0; the “Classification and statistics of pesticide damage grade Grade 3” value is given as 16.
B6: the “Classification and statistics of pesticide damage grade Grade 0” value amounted to 4; the “Classification and statistics of pesticide damage grade Grade 1” value stood at 4; the “Classification and statistics of pesticide damage grade Grade 2” value was 8; the “Classification and statistics of pesticide damage grade Grade 3” value came out at 0.

The same assay, now with this note: HPPDs from different species; number of plants (of 16) in this grade; topramezone 100 g ai/ha (4x), 7 DAT.
In the case of B1, the “Classification and statistics of pesticide damage grade Grade 0” value was 0; the “Classification and statistics of pesticide damage grade Grade 1” value stood at 0; the “Classification and statistics of pesticide damage grade Grade 2” value is reported as 0; the “Classification and statistics of pesticide damage grade Grade 3” value is reported as 16.
Regarding B2, the “Classification and statistics of pesticide damage grade Grade 0” value stood at 0; the “Classification and statistics of pesticide damage grade Grade 1” value is 0; the “Classification and statistics of pesticide damage grade Grade 2” value came to 0; the “Classification and statistics of pesticide damage grade Grade 3” value was 16.
Turning to B3, the “Classification and statistics of pesticide damage grade Grade 0” value came to 0; the “Classification and statistics of pesticide damage grade Grade 1” value was 0; the “Classification and statistics of pesticide damage grade Grade 2” value worked out at 0; the “Classification and statistics of pesticide damage grade Grade 3” value came out at 16.
With B4, the “Classification and statistics of pesticide damage grade Grade 0” value stood at 4; the “Classification and statistics of pesticide damage grade Grade 1” value turned out to be 4; the “Classification and statistics of pesticide damage grade Grade 2” value came to 8; the “Classification and statistics of pesticide damage grade Grade 3” value came to 0.
For the molecule B5, the “Classification and statistics of pesticide damage grade Grade 0” value turned out to be 0; the “Classification and statistics of pesticide damage grade Grade 1” value is reported as 0; the “Classification and statistics of pesticide damage grade Grade 2” value amounted to 0; the “Classification and statistics of pesticide damage grade Grade 3” value was determined as 16.
On to B6, for which the “Classification and statistics of pesticide damage grade Grade 0” value is given as 0; the “Classification and statistics of pesticide damage grade Grade 1” value came out at 0; the “Classification and statistics of pesticide damage grade Grade 2” value is on record as 4; the “Classification and statistics of pesticide damage grade Grade 3” value came out at 12.

The same assay, now with this note: HPPDs from different species; score for pesticide damage 0-100; topramezone 25 g ai/ha (1x), 7 DAT.
B1 yielded a Scores of 100.
Regarding B2, the Scores is recorded as 17.
Molecule B3 returned a Scores of 100.
The molecule B4 gave a Scores of 0.
Consider B5, for which the Scores came out at 100.
As to B6, the Scores was found to be 42.

The same assay, now with this note: HPPDs from different species; score for pesticide damage 0-100; topramezone 100 g ai/ha (4x), 7 DAT.
Consider B1, for which the Scores was determined as 100.
For the molecule B2, the Scores is reported as 100.
The molecule B3 showed a Scores of 100.
B4 had a Scores of 42.
On to B5, for which the Scores was 100.
On the same count and under the same terms, the value for B6 was 92.

The assay is the same for the next values; noted with them: HPPDs from different species; topramezone 25 g ai/ha (1x), 7 DAT.
For the molecule B1, the Resistance evaluation result is given as “non-resistant (non-resistant plants (scores 68-100))”.
As to B2, the Resistance evaluation entry was “moderately resistant (moderately resistant plants (scores 16-33))”.
Take B3: the Resistance evaluation result is reported as “non-resistant (non-resistant plants (scores 68-100))”.
On to B4, for which the Resistance evaluation entry is reported as “highly resistant_ (highly resistant plants (scores 0-15))”.
Take B5: the Resistance evaluation entry is on record as “non-resistant (non-resistant plants (scores 68-100))”.
As to B6, the Resistance evaluation entry is given as “poorly resistant (poorly resistant plants (scores 34-67))”.

The same assay, now with this note: HPPDs from different species; topramezone 100 g ai/ha (4x), 7 DAT.
In the case of B1, the Resistance evaluation result was “non-resistant (non-resistant plants (scores 68-100))”.
Still for that read-out and setting: the value for B2 was “non-resistant (non-resistant plants (scores 68-100))”; that for B3 was “non-resistant (non-resistant plants (scores 68-100))”.
As to B4, the Resistance evaluation entry is on record as “poorly resistant (poorly resistant plants (scores 34-67))”.
Consider B5, for which the Resistance evaluation result is on record as “non-resistant (non-resistant plants (scores 68-100))”.
Turning to B6, the Resistance evaluation result is “non-resistant (non-resistant plants (scores 68-100))”.

For the origin of these results see patent US20230212587A1, “Mutant Hydroxyphenylpyruvate Dioxygenase Polypeptide, Encoding Gene Thereof and Use Therefor” (Beijing Dabeinong Biotechnology Co., Ltd., priority 2019, published 2023).
